Laboratory results taken from patent US7939292B2, “Modified heparinase III and methods of sequencing therewith” (Massachusetts Institute of Technology, priority 2000, dated 2011).
Changes are numbered by the printed parent chain. In names and notes the source's numbering stands. Entries after “also recorded” stand apart in the source; their conditions may differ.

B1: H539A: recombinant heparinase III with histidine 539 mutated to alanine (protein)
chain: MTTKIFKRIIVFAVIALSSGNILAQSSSITRKDFDHINLEYSGLEKVNKAVAAGNYDDAAKALLAYYREKSKAREPDFSNAEKPADIRQPIDKVTREMADKALVHQFQPHKGYGYFDYGKDINWQMWPVKDNEVRWQLHRVKWWQAMALVYHATGDEKYAREWVYQYSDWARKNPLGLSQDNDKFVWRPLEVSDRVQSLPPTFSLFVNSPAFTPAFLMEFLNSYHQQADYLSTHYAEQGNHRLFEAQRNLFAGVSFPEFKDSPRWRQTGISVLNTEIKKQVYADGMQFELSPIYHVAAIDIFLKAYGSAKRVNLEKEFPQSYVQTVENMIMALISISLPDYNTPMFGDSWITDKNFRMAQFASWARVFPANQAIKYFATDGKQGKAPNFLSKALSNAGFYTFRSGWDKNATVMVLKASPPGEFHAQPDNGTFELFIKGRNFTPDAGVFVYSGDEAIMKLRNWYRQTRIHSTLTLDNQNMVITKARQNKWETGNNLDVLTYTNPSYPNLDHQRSVLFINKKYFLVIDRAIGEATGNLGVAWQLKEDSNPVFDKTKNRVYTTYRDGNNLMIQSLNADRTSLNEEEGKVSYVYNKELKRPAFVFEKPKKNAGTQNFVSIVYPYDGQKAPEISIRENKGNDFEKGKLNLTLTINGKQQLVLVP
B2: H510A: recombinant heparinase III with histidine 510 mutated to alanine (protein)
chain: B1 chain with H510A, A539H
B3: H36A: recombinant heparinase III with histidine 36 mutated to alanine (protein)
chain: B1 chain with H36A, A539H
B4: H152A: recombinant heparinase III with histidine 152 mutated to alanine (protein)
chain: B1 chain with H152A, A539H
B5: H225A: recombinant heparinase III with histidine 225 mutated to alanine (protein)
chain: B1 chain with H225A, A539H
B6: H234A: recombinant heparinase III with histidine 234 mutated to alanine (protein)
chain: B1 chain with H234A, A539H
B7: H241A: recombinant heparinase III with histidine 241 mutated to alanine (protein)
chain: B1 chain with H241A, A539H
B8: H469A: recombinant heparinase III with histidine 469 mutated to alanine (protein)
chain: B1 chain with H469A, A539H
B9: H424A: recombinant heparinase III with histidine 424 mutated to alanine (protein)
chain: B1 chain with H424A, A539H
B10: H295A: recombinant heparinase III with histidine 295 mutated to alanine (protein)
chain: B1 chain with H295A, A539H
B11: heat inactivated heparinase III: heat inactivated heparinase III used as control (protein, UniProt Q59289 25-659, looked up)
Heparin-sulfate lyase: QSSSITRKDFDHINLEYSGLEKVNKAVAAGNYDDAAKALLAYYREKSKAREPDFSNAEKPADIRQPIDKVTREMADKALVHQFQPHKGYGYFDYGKDINWQMWPVKDNEVRWQLHRVKWWQAMALVYHATGDEKYAREWVYQYSDWARKNPLGLSQDNDKFVWRPLEVSDRVQSLPPTFSLFVNSPAFTPAFLMEFLNSYHQQADYLSTHYAEQGNHRLFEAQRNLFAGVSFPEFKDSPRWRQTGISVLNTEIKKQVYADGMQFELSPIYHVAAIDIFLKAYGSAKRVNLEKEFPQSYVQTVENMIMALISISLPDYNTPMFGDSWITDKNFRMAQFASWARVFPANQAIKYFATDGKQGKAPNFLSKALSNAGFYTFRSGWDKNATVMVLKASPPGEFHAQPDNGTFELFIKGRNFTPDAGVFVYSGDEAIMKLRNWYRQTRIHSTLTLDNQNMVITKARQNKWETGNNLDVLTYTNPSYPNLDHQRSVLFINKKYFLVIDRAIGEATGNLGVHWQLKEDSNPVFDKTKNRVYTTYRDGNNLMIQSLNADRTSLNEEEGKVSYVYNKELKRPAFVFEKPKKNAGTQNFVSIVYPYDGQKAPEISIRENKGNDFEKGKLNLTLTINGKQQLVLVP
modifications: heat inactivated

Tested on: not listed separately
Experiment: Heparinase III kinetic assay of r-heparinase III and histidine mutants
Format: biochemical
Conditions: not given
Method: The activity of heparinase III was measured using a UV 232 nm assay similar to those reported for heparinase I and heparinase II (Godavarti, R., Cooney, C. L., Langer, R., and Sasisekharan, R. (1996) Biochemistry 35, 6846-52; Shriver, Z., Hu, Y., and Sasisekharan, R. (1998) J. Biol. Chem. 273, 10160-67; and Lohse, D. and Linhardt, R. J. (1992) J. Biol. Chem. 267, 781-87). Briefly, the increase in absorbance at 232 nm as a function of time was monitored under saturating substrate conditions. All assays were performed with heparan sulfate at a concentration of 2 mg/ml in 50 mM sodium phosphate, pH 7.6. The temperature for enzymatic activity measurements was kept constant at 35° C.
In parallel to the mapping studies and to confirm the results of the chemical modification experiments, each of the thirteen histidine residues present in heparinase III was mutated to alanine. The recombinant heparinase III mutant proteins were expressed, purified, and assessed for enzymatic activity towards heparan sulfate (Table 2).

Row | Molecule | changes in recombinant protein yield, enzyme activity, or kinetic parameters compared with r-heparinase III
1 | B1 | no significant changes
2 | B2 | no significant changes
3 | B3 | no significant changes
4 | B4 | no significant changes
5 | B5 | no significant changes
6 | B6 | no significant changes
7 | B7 | no significant changes
8 | B8 | no significant changes
9 | B9 | no significant changes

Same assay, conditions: heparan sulfate

Row | Molecule | kcat [s⁻¹]
10 | B1 | 132
11 | B3 | 86
12 | B4 | 83
13 | B5 | 22
14 | B6 | 23
15 | B7 | 5
16 | B8 | 100
17 | B9 | 24

Same assay, conditions: heparan sulfate; calculated assuming a molecular weight of 15 kDa

Row | Molecule | Km [µM]
18 | B1 | 92
19 | B3 | 98
20 | B4 | 58
21 | B5 | 80
22 | B6 | 75
23 | B7 | 16
24 | B8 | 71
25 | B9 | 59

Same assay, conditions: kinetic data and exhaustive digest profile

Row | Molecule | enzymatic activity towards heparan sulfate
26 | B10 | completely inactive; also recorded: no enzymatic activity
27 | B2 | completely inactive; also recorded: no enzymatic activity

Tested on: B16BL6 melanoma
Experiment: Primary tumor growth of B16BL6 melanoma in mice treated with heparinases
Format: in vivo
Conditions: day 15
Source text: Heparinases I and III, which have very distinct substrate specificities for cleaving HLGAGs, were employed as tools to investigate the role of HLGAGs in tumor growth and metastasis. While heparinase I cleaves at the highly sulfated regions of HLGAGs, heparinase III only cleaves at the under-sulfated regions of the polysaccharide chain, thereby rendering these enzymes powerful tools to investigate in vivo and in vitro roles of HLGAGs, in development, morphogenesis, angiogenesis etc. To examine the roles of HLGAGs in tumor growth and metastasis, we used B16BL6 melanoma as a model system and treated tumor-bearing mice with either heparinases I or III to investigate both primary tumor growth as well as tumor metastasis. Consistent with the current paradigm, heparinase I accelerated tumor growth (FIG. 8). At a dosage of 0.5 mg/kg/day of heparinase I, tumor growth was increased by about 39%. […] Inhibition of primary tumor growth by heparinase III was first observed at 2 mg/kg per day. Tumor growth was inhibited by 73% at 12 mg/kg per day, the maximum dosage tested in the study (FIG. 8).
Mice, 15 days after tumor implantation with B16BL6 melanoma, were examined. 4×10^5 log growth phase B16BL6 melanoma cells in 0.1 ml PBS were injected to the flank of C57BL/6 mice on day 1. Daily injection of 0.1 ml of PBS, heat inactivated hep III or active heparinase III (2 mg/ml, recombinantly expressed, purified, buffer exchanged with PBS, and concentrated) started at the day 4 and continued throughout the experiment. At day 7, osmotic pumps (100 μl capacity delivering at 0.5 μl per hour) containing PBS or 3 mg/ml hep III were implanted subcutaneously at a place remote from the tumor site. Mice were sacrificed at day 15.
FIG. 8 depicts the tumor volume of the tumors isolated from the mice described above. Tumor volume was measured daily after day 7 with a caliper and calculated with the formula [volume=0.52×(width)^2×(length)].

Row | Molecule | tumor mass upon visual inspection compared with active Hep III
28 | B11 | significantly larger tumor masses

Same assay, conditions: mouse, in vivo

Row | Molecule | tumor growth curves compared with PBS treated mice
29 | B11 | comparable growth curves
